Measurements from patent US20250213647A1, “CHEMOKINE RECEPTORS AND ALPHA1 ADRENERGIC RECEPTORS/VASOPRESSIN RECEPTORS 1A HETEROMERS AS DRUG TARGETS FOR DISEASE” (UNIVERSITY OF SOUTH FLORIDA, priority 2022, published 2025).
Where two headings read alike, the source gives them in different places.

Legend:
mouse CCR2 = molecular target: T1, mouse CCR2 (Mus musculus, UniProt P51683); assay: Gαi activation assay (TRUPATH BRET), HEK293T cells transfected with mouse CCR2; type: cell-based; settings: FIG. 9A
T1 construct: expressed in transfected cells; host or cells: HEK293T
Method: (§1) HEK293T cells were plated in a 6-well plate and transfected with 0.2 μg each of Gαi1-Rluc8, Gβ3 and Gγ9-GFP2 (Trupath) together with 0.2 μg of mouse or human CCR2 with either pcDNA3.1 or α1b-AR. One day after transfection, cells were trypsinized and replated to 96-well poly-L lysine precoated plates. After overnight incubation, cells were replaced with 0.1% glucose/PBS. Prolume Purple (NanoLight Tech.) or coelenterazine 400a in a final concentration of 5 μM were added in experiments with human or mouse CCR2, respectively, and incubated at room temperature for 3 min. Ligands at various concentrations were added to cells and incubated at room temperature for 5 min before luminescence was measured at 410 nm and 515 nm. […] The BRET changes were calculated by subtracting the BRET signal of untreated cells.

α1b-AR:CCR2 heteromer = molecular target: T2, α1b-AR:CCR2 heteromer (Homo sapiens, UniProt P35368+P41597); assay: Gαi activation assay (TRUPATH BRET), HEK293T cells transfected with CCR2 plus α1b-AR; type: cell-based
T2 construct: expressed in transfected cells; host or cells: HEK293T
Method: as §1

THP-1_ADRA1B^KO cells = assay: Cyclic AMP measurement in forskolin-stimulated THP-1_ADRA1B^KO cells; type: cell-based, human; settings: FIG. 2B
Method: (§2) Cyclic AMP amounts were measured using the cAMP complete enzyme immunoassay kit, acetylated format (Enzo Life Sciences). 4×10^5 cells were incubated with forskolin/isobutylmethylxanthine (10 μM/0.5 mM final concentrations) in 0.1% BSA/10 mM Hepes-buffered RPMI and treated with CCL2 in the presence or absence of 1 μM PE, 1 μM PT or 100 nM NE at 37° C. for 15 min. The cells were lysed by incubating with 0.1 M HCl at room temperature for 20 min. The cAMP amounts in the lysate supernatant were measured following the manufacturer's instructions.

CCR2 [1] = molecular target: T3, CCR2 (Homo sapiens, UniProt P41597); assay: Radioligand competition binding assay, [125I]-CCL2, crude membrane preparations of THP-1 cells; parameters: host or cells: THP-1; settings: THP-1 cells pretreated with vehicle; mean±SE, n=3; read-out: IC50 of CCL2 to displace [125I]-CCL2
Method: Cells were then centrifuged at 30,000× g (20 min, 4° C.), the supernatant was discarded, and pelleted cell fragments were snap-frozen in liquid nitrogen. The cell pellets were resuspended in 50 mM HEPES, 5 mM MgCl2, 1 mM CaCl2, 0.1% w/v BSA, pH 7.2, and then incubated with 50 pM [^125I]-CCL2, 1× Xpert Protease Inhibitor Cocktail (GenDEPOT), and varying concentrations of CCL2 for 1.5 h at 25° C. Bound [^125I]-CCL2 was collected via vacuum filtration using buffer containing 10 mM HEPES (pH 7.4) and 0.5 M NaCl at 4° C., and a cell harvester (Brandel) equipped with glass fiber filters. Radioactivity was measured in a gamma counter at 70% efficiency.

CCR2 [2] = molecular target: T3, CCR2; assay: Gαi activation assay (TRUPATH BRET), HEK293T cells transfected with CCR2 plus pcDNA3 (CCR2 alone); type: cell-based
Method: as §1

CCR2 [3] = molecular target: T3, CCR2; settings: higher for CCR2; cited from earlier work
CCR2 [4] = molecular target: T3, CCR2; assay: BRET assay for β-arrestin recruitment, HEK293T with CCR2-Rluc and β-arrestin-YFP without α1b-AR; type: cell-based
Method: (§3) β-arrestin recruitment was measured by BRET, as described (Armando, 2014; Berchiche, 2011). In brief, HEK293T cells were plated in a 6-well plate and transfected with 0.1 μg of CCR2-RluII and 1.9 μg β-arrestin-YFP with 0.1 μg pcDNA3.1 or α1b-AR. One day after transfection, cells were re-plated into 96-well poly-L lysine precoated plates. After overnight incubation, cells were replaced with 0.1% glucose/PBS. Coelenterazine H in a final concentration of 5 μM was added to cells and incubated at room temperature for 3 min. […] The BRET changes were calculated by subtracting the BRET signal of untreated cells.

CCR2:α1b-AR heteromers [5] = molecular target: T4, CCR2:α1b-AR heteromers (Homo sapiens, UniProt P35368+P41597); assay: BRET assay for β-arrestin recruitment, HEK293T co-expressing CCR2-Rluc, β-arrestin-YFP and α1b-AR; type: cell-based; parameters: expressed in transfected cells; settings: CCL2 plus vehicle; FIG. 5D
Method: as §3

CCR2:α1b-AR heteromers [6] = molecular target: T4, CCR2:α1b-AR heteromers; assay: PRESTO-Tango β-arrestin recruitment assay, HTLA cells with CCR2-Tango plus α1b-AR; type: cell-based; parameters: Tango module of the TANGO vector (C); expressed in transfected cells; host or cells: HTLA
Method: The assays were performed as described previously (Albee, 2017; Gao, 2022; Albee, 2018; Eby, 2017; Cheng, 2017). HTLA cells were seeded in a 6-well plate and transfected with 750 ng FLAG-CCR2-Tango together with 750 ng pcDNA3.1 or HA-α1b-AR using TransIT-2020 Transfection Reagent. The next day, cells (75,000 cells/well) were plated onto poly-L-Lysine pre-coated 96-well plates and allowed to attach to the plate surface for at least 4 hours prior to treatment. Cells were treated with receptor ligands at the concentrations indicated in the figure legends for 2 h and then replaced with fresh full medium and incubated overnight at 37° C., 5% CO2 in a humidified environment. The following morning, medium was replaced with a 100 μL 1:10 mixture of Bright-Glo (Promega) and PBS. Plates were then incubated at room temperature for 10 min before measuring luminescence on a Biotek Synergy II plate reader. Relative luminescence units (RLU) are expressed as fold changes of RLU vs unstimulated cells.

[7] = test system: THP-1 cells (CCR2-mediated Gαi signaling); assay: Cyclic AMP measurement in forskolin-stimulated THP-1 cells; type: cell-based, human; settings: for % inhibition of cAMP production by CCL2: 100 nM CCL2, FIG. 2F
Method: as §2

CXCR1 = assay: Chemotaxis assay, THP-1 cells toward CXCL8 (CXCR1-mediated); type: cell-based, human; settings: CXCL8 10 nM, FIG. 13B
Method: (§4) Cell migration was measured employing the Neuroprobe (Gaithersburg, MD, USA) ChemoTx® Disposable Chemotaxis System. A 96-well Boyden-chamber (30 μL/well, 8 μm pores, 1×10^5 pores/cm^2 pore density) was selected for all chemotaxis experiments. Bottom wells of the Boyden-chamber were loaded with 30 μL of test substances at various concentrations. Top wells of the membrane were loaded with 25 μL of THP-1 cells, THP-1_ADRA1B^KO, wild type THP-1 cells after clonal expansion (=control for THP-1_ADRA1B^KO) or freshly isolated monocytes (200 cells/μL). THP-1 cells were suspended in depleted RPMI1640 (0.5% HyClone™ fetal bovine serum, Sigma); Freshly isolated monocytes were suspended in RPMI1640 (0.5% human platelet poor plasma, Sigma). After 3 hours, transmigrated cells were counted utilizing the Cytation 1 plate reader (BioTek) by direct imaging in high contrast bright field (4×) and post-imaging particle analyses with Gen5 (v3.05) Imaging & Microscopy Software (BioTek). The chemotactic index (CI) was calculated as the ratio of cells that transmigrated in the presence versus the absence of the test solutions.

CCR2 [8] = molecular target: T3, CCR2; assay: Chemotaxis assay, THP-1 cells toward CCL2 (CCR2-mediated); type: cell-based; parameters: host or cells: THP-1; settings: CCL2 10 nM, FIG. 23E
Method: as §4

T2 sequence (P41597 whole entry): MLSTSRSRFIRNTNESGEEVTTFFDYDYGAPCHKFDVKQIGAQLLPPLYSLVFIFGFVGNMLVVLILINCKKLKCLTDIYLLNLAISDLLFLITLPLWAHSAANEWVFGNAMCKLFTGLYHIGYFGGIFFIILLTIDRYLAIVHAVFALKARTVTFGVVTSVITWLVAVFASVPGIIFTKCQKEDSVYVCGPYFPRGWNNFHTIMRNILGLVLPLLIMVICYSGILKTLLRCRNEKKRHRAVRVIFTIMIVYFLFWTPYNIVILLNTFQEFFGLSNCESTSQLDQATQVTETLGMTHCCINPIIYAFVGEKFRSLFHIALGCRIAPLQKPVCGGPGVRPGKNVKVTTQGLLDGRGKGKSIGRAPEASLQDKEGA
T2 sequence (P35368 whole entry): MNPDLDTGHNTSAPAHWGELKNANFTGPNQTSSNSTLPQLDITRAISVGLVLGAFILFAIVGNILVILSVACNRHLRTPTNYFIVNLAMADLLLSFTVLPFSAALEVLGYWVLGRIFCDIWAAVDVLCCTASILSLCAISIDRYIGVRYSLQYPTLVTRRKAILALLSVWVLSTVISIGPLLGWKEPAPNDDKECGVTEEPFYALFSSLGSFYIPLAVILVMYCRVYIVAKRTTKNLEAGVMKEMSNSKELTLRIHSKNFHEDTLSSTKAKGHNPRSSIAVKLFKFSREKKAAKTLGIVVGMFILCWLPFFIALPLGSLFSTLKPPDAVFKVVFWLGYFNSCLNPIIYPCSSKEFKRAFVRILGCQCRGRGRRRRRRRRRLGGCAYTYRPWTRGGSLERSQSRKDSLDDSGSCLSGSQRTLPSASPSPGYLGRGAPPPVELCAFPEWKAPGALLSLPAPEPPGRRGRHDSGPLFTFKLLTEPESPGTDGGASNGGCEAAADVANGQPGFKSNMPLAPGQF
T3 sequence (P41597 whole entry, the tested form may be a part): as the sequence (P41597 whole entry) above
T4 sequence (P41597 whole entry): as above
T4 sequence (P35368 whole entry): as the sequence (P35368 whole entry) above
T1 sequence (P51683 whole entry): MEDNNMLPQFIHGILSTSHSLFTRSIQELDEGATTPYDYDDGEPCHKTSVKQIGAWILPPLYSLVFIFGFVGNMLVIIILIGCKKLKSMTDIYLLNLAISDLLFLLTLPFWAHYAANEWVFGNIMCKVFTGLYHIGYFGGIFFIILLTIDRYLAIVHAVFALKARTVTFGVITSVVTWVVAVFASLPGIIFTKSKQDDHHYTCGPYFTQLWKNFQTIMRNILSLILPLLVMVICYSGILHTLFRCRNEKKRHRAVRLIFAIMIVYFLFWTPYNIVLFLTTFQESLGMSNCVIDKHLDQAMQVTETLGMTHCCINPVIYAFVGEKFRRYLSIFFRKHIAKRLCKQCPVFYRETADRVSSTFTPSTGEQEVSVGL

CCL2: chemokine (C-C motif) ligand 2, cognate agonist of CCR2, CCR3 and CCR5
bottom plateau, Gαi1 activation by human CCL2 (mouse CCR2): −0.073±0.009
EC50 (mouse CCR2; read-out: EC50 of human CCL2, Gαi1 activation): 3.5 ± 3.1 nM
bottom plateau, CCL2-induced Gαi activation (α1b-AR:CCR2 heteromer; CCL2 plus vehicle, FIG. 4C): −0.04±0.002
EC50 (α1b-AR:CCR2 heteromer; CCL2 plus vehicle, FIG. 4C, read-out: EC50 of CCL2 to induce Gαi activation): 0.9 ± 0.25 nM
bottom plateau, CCL2-induced Gαi activation (α1b-AR:CCR2 heteromer; CCL2 plus vehicle, FIG. 4D): −0.04±0.002
EC50 (α1b-AR:CCR2 heteromer; CCL2 plus vehicle, FIG. 4D, read-out: EC50 of CCL2 to induce Gαi activation): 1.3 ± 0.4 nM
bottom plateau, CCL2-induced Gαi activation (α1b-AR:CCR2 heteromer; CCL2 plus vehicle, FIG. 4F): −0.042±0.002
EC50 (α1b-AR:CCR2 heteromer; CCL2 plus vehicle, FIG. 4F, read-out: EC50 of CCL2 to induce Gαi activation): 1.5 ± 0.5 nM
bottom plateau (BRET change), Gαi1 activation by CCL2 (α1b-AR:CCR2 heteromer; cells transfected with CCR2 plus α1b-AR, FIG. 1B): −0.037±0.001
EC50 (α1b-AR:CCR2 heteromer; cells transfected with CCR2 plus α1b-AR, FIG. 1B, read-out: EC50 of CCL2, Gαi1 activation): 0.94 ± 0.2 nM
inhibition of cAMP production by CCL2 (THP-1_ADRA1B^KO cells; forskolin-stimulated THP-1_ADRA1B^KO cells, 100 nM CCL2, 15 min at 37° C.): 30±4%
IC50 (CCR2 [1]): 0.167 ± 0.023 nM
bottom plateau (BRET change), Gαi1 activation by CCL2 (CCR2 [2]; cells transfected with CCR2 alone, FIG. 1B): −0.03±0.001
EC50 (CCR2 [2]; cells transfected with CCR2 alone, FIG. 1B, read-out: EC50 of CCL2, Gαi1 activation): 3.31 nM
bottom plateau, Gαi1 activation by human CCL2 (CCR2 [2]; human CCR2, FIG. 9A): −0.058±0.004
EC50 (CCR2 [2]; human CCR2, FIG. 9A, read-out: EC50 of human CCL2, Gαi1 activation): 1.4 ± 0.8 nM
binding affinity of CCL2 for CCR2 relative to CCR3 and CCR5 (CCR2 [3]): approximately 100 fold
EC50 (CCR2 [4]; FIG. 5C, read-out: EC50 of CCL2, BRET between CCR2-Rluc and β-arrestin-YFP): 3.5 ± 0.9 nM
EC50 (CCR2:α1b-AR heteromers [5]): 3.7 ± 0.5 nM
Top plateau, β-arrestin recruitment BRET (CCR2:α1b-AR heteromers [5]): 0.06±0.001
EC50 (CCR2:α1b-AR heteromers [6]; CCL2 alone, FIG. 5B): 1.6 ± 1.3 nM
efficacy to induce β-arrestin recruitment to CCR2 (CCR2:α1b-AR heteromers [6]; agonist alone): 43±5 fold change RLU
efficacy of CCL2 relative to phenylephrine to recruit β-arrestin to CCR2 (CCR2:α1b-AR heteromers [6]; higher): 18 fold
% inhibition of cAMP production by CCL2 ([7]; THP-1 cells incubated with non-targeting siRNA): 66±5%
% inhibition of cAMP production by CCL2 ([7]; THP-1 cells incubated with α1B-AR siRNA): 46±4%
reduction of cAMP levels by CCL2 ([7]; forskolin-stimulated THP-1 cells, 100 nM CCL2, 15 min at 37° C., FIG. 2B): 56±6%

NC(=O)CC[C@@H]1NC(=O)[C@H](Cc2ccccc2)NC(=O)[C@H](Cc2ccc(O)cc2)NC(=O)[C@@H](N)CSSC[C@@H](C(=O)N2CCC[C@H]2C(=O)N[C@@H](CCCN=C(N)N)C(=O)NCC(N)=O)NC(=O)[C@H](CC(N)=O)NC1=O [AVP, arginine vasopressin]
chemotaxis mediated by CXCR1 (CXCR1): did not affect

COc1ccc(C2(O)CCC(N3CC[C@@H](NC(=O)CNC(=O)c4cccc(C(F)(F)F)c4)C3)CC2)cn1 (some centres unmarked) [INCB3284]
inhibition of CCL2-induced chemotaxis (CCR2 [8]): more than 95%
effect on the CCL2-induced BRET signal (CCR2-Rluc / β-arrestin-YFP) (CCR2 [4]; 10 μM PE, PT or 100 nM INCB3284, FIG. 5C): could be inhibited

NC[C@H](O)c1ccc(O)c(O)c1 [norepinephrine]
effect on CCL2-induced Gαi1 activation (CCR2 [2]; cells transfected with CCR2 alone, 10 μM PE or PT, FIG. 4B, 4E): did not affect
effect on the effects of CCL2 on cAMP production ([7]; forskolin-stimulated THP-1 cells, 1 μM PE, 1 μM PT or 100 nM NE, 15 min at 37° C., FIG. 4G, 4H): inhibited the effects of CCL2 on cAMP production

B1: CCL1: Chemokine (C-C motif) ligand 1, selective agonist of CCR8 (protein, UniProt P22362 24-96, looked up)
C-C motif chemokine 1: KSMQVPFSRCCFSFAEQEIPLRAILCYRNTSSICSNEGLIFKLKRGKEACALDTVGWVQRHRKMLRHCPSKRK
inhibition of forskolin-stimulated cAMP production by CCL1, THP1 vs THP-1_ADRA1B^KO cells (THP-1_ADRA1B^KO cells; 100 nM CCL1, 15 min at 37° C.): indistinguishable
